Reference: patent US20200093883

Tested on: JNK inhibitor according to SEQ ID NO: 172 ("XG-104")

Substance: c-Jun N-terminal kinase (JNK) in primary mouse cortical neurons
- c-Jun phosphorylation (immunoblot), WT neurons stressed with 2 µM Aβ42, 10 µM XG-104: XG-104 showed -29% efficacy in order to decrease c-Jun phosphorylation (FIG. 55 C)
